Measurements from patent KR20230022334A (dated 2023).

Assays:
[1] = target: T1, API5(Apoptosis inhibitor protein 5) 단백질, Expi293 세포에서 일시발현 후 정제 (human, UniProt Q9BZZ5-2 1-504); assay: ELISA, 3F2 serially diluted 3.125-200 nM (8 points including 0 nM)
T1 construct: also called rhAPI5; AAC-11
T1 sequence: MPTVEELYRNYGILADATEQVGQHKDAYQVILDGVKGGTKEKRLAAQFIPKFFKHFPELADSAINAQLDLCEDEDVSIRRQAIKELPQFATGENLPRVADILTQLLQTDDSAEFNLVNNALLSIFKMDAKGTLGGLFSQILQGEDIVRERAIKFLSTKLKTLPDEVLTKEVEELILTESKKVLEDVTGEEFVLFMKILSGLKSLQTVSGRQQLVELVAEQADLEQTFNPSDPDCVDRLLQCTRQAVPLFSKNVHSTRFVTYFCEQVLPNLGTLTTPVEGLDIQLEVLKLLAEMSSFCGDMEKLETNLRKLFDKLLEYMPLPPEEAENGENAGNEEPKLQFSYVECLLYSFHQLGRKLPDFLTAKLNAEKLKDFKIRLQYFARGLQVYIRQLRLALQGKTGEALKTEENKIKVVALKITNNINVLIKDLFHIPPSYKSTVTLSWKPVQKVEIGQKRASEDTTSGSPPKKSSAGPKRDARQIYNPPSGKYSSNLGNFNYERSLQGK

[2] = target: T1, API5(Apoptosis inhibitor protein 5) …; assay: SPR, Biacore T200, 3F2 serially diluted 3.125-100 nM (7 points including 0 nM)

B1: 3F2 항체 (API5 표적 인간 항체 3F2) (antibody, V domains shown)
VH: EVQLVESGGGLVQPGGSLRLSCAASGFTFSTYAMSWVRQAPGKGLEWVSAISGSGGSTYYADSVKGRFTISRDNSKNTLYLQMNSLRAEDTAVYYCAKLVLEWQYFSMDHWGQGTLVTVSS
VL: DIQMTQSPSSLSASVGDRVTITCRASQSISRYLNWYQQKPGKAPKLLIYAASTLQSGVPSRFSGSGSGTDFTLTISSLQPEDFATYYCQQSYSFPWTFGQGTKVEIK
notes: Purified 3F2 antibody as used in the ELISA and SPR; IgG is used as the control in later experiments; also called API5 항체 3F2; 3F2 antibody
Kd [1]: 1.2 nM | Kd [2]: 4.62 nM
